According to US20190276526A1 (AbbVie / Abbott, published 2019):
Blank lines part the entries; values can stand above or below the binder they belong to.

Legend:
Rat RGMa-His (rat) = biological target: T1, Rat RGMa-His (rat) (UniProt D4A188); test: BIAcore
T1 sequence: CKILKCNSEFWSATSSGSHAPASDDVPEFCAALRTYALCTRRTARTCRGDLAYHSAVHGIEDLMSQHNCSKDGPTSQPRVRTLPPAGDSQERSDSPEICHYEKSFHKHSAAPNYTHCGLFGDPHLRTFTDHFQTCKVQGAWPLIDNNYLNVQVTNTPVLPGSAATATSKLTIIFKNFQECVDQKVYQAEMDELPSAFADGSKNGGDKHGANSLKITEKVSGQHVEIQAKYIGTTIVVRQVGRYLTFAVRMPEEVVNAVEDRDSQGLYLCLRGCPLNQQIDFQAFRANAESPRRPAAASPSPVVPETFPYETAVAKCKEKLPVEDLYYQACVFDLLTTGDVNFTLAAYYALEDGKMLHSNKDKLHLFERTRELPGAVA

hRGMa-Fc = biological target: T2, hRGMa-Fc (human, UniProt Q96B86 47-422, limits assumed, biotinylated in the neogenin ELISA and the MSD assay); test: HCS (high content analysis) live cell binding inhibition assay: Fc-tagged RGMa complexed with Cy3-labeled anti-Fc antibody, preincubated with the antibody, then added to cells for 30 min at 37 C; blocked: RGMa-Fc binding to SH-SY5Y cells; n=2
T2 construct: also called biot-hRGMa-Fc; biotinylated hRGMa-Fc; not shown: Fc part
T2 sequence: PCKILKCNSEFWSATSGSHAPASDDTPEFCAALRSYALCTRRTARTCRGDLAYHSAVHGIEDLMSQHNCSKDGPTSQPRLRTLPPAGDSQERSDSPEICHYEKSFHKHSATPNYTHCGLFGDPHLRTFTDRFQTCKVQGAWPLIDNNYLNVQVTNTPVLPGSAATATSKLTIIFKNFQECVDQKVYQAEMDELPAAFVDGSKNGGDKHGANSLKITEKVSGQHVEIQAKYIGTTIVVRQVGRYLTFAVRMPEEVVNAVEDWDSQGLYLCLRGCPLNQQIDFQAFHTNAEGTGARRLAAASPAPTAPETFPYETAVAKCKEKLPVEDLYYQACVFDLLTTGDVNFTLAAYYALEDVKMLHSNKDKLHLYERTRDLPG
Procedure: FIGS. 13A-F and 14A-H illustrate the neutralizing effects of the specified antibodies on RGMa binding to neuronal cells using a live cell binding assay on SH-SY5Y cells and rat hippocampal primary neurons. Fc-tagged RGMa and Cy3-labeled anti-Fc antibodies are complexed at 4° C. for 60 minutes, followed by an incubation of the complex with a blocking antibody at room temperature for 10 minutes. The RGMa-Cy3 +antibody complex is then added to cells together with Hoechsts 33342 for 30 minutes at 37° C. to allow binding onto the cells. The cell are then washed twice in culture medium and fixed with PFH. Cell imaging is performed with the BD Pathway and images analyzed with the Definiens Architect software.

- kon (Rat RGMa-His (rat)): 22000 M⁻¹ s⁻¹
B1: AE12-1-V (antibody, V domains shown)
VH: EVQLVQSGAEVKKPGASVKVSCKASGYTFTSHGISWVRQAPGQGLDWMGWISPYSGNTNYAQKLQGRVTMTTDTSTSTAYMELSSLRSEDTAVYYCARVGSGPYYYMDVWGQGTLVTVSS
VL: QSALTQPRSVSGSPGQSVTISCTGTSSSVGDSIYVSWYQQHPGKAPKLMLYDVTKRPSGVPDRFSGSKSGNTASLTISGLQAEDEADYYCVSYAGTDTLFGGGTKVTVL

- IC50 (read off the curve) (hRGMa-Fc): ~10 nM
B2: AE12-6 (antibody, V domains shown)
VH: EVQLVQSGAEVKKPGASVKVSCKASGYIFTNYDIAWVRQAPGQGLEWMGWMNPDSGNTGFVQKFKGRVTATSNTDITTAYMELSSLTSEDTAVYYCARDRFGSGYDLDHWGQGTLVTVSS
VL: SYELTQPPSVSVAPGQTARITCGGNNIGSKSVHWYQQKPGQAPVLVVYDDSDRPSGIPERFSGSNSGNTATLTISRVEAGDEADYYCQVWGSSSDHYVFGTGTKVTVL
notes: lambda light chain
